Reference: article PMC2568893, “Role of αBI5 and αBT162 residues in subunit interaction during oligomerization of αB-crystallin” (Molecular Vision, 2008)

Tests used:
[1] = target: the molecule itself; assay: SEC-MALS; TSK G5000PWXL column, 100 µg protein, 50 mM phosphate, 150 mM NaCl, 0.02% sodium azide, pH 7.2, with the reducing agent TCEP; without it both Cys mutants formed larger oligomers
[2] = target: αBT162C mutant of human αB-crystallin (human) (UniProt P02511); assay: FRET or BRET; amine-labelled proteins: Alexa Fluor 350 TFP ester (donor) and Alexa Fluor 488 TFP ester (acceptor); 50 µg of each labelled protein mixed at 37 °C; subunit exchange rate from Ft/F0

Binder | stoichiometry N [1] [subunits] | rate of subunit exchange [2] [s⁻¹] | subunit interaction rate [2] [s⁻¹]
αBI5C mutant of human αB-crystallin (natural protein, UniProt P02511 1-175, looked up, FRET assays only: Alexa Fluor 488 or Alexa Fluor 555 C5-maleimide on the cysteine (thiol-labelled), or Alexa Fluor 350 carboxylic acid TFP ester on amines (amine-labelled, donor); unlabelled in the other experiments, human αB-crystallin (HspB5), 175 amino acids, with I5C; cDNA in pET-23d(+); Homo-oligomer, on average 35 subunits when reduced; also called αB5C) MDIACHHPWIRRPFFPFHSPSRLFDQFFGEHLLESDLFPTSTSLSPFYLRPPSFLRAPSWFDTGLSEMRLEKDRFSVNLDVKHFSPEELKVKVLGDVIEVHGKHEERQDEHGFISREFHRKYRIPADVDPLTITSSLSSDGVLTVNGPRKQVSGPERTIPITREEKPAVTAAPKK | 35 | 0.000655 | 6.5e-05
αBT162C mutant of human αB-crystallin (natural protein, UniProt P02511 1-175, looked up, FRET assays only: Alexa Fluor 488 or Alexa Fluor 555 C5-maleimide on the cysteine (thiol-labelled), or Alexa Fluor 488 carboxylic acid TFP ester on amines (amine-labelled, acceptor); unlabelled in the other experiments, human αB-crystallin (HspB5), 175 amino acids, with T162C; cDNA in pET-23d(+); Homo-oligomer, on average 35 subunits when reduced; also called αB162C) MDIAIHHPWIRRPFFPFHSPSRLFDQFFGEHLLESDLFPTSTSLSPFYLRPPSFLRAPSWFDTGLSEMRLEKDRFSVNLDVKHFSPEELKVKVLGDVIEVHGKHEERQDEHGFISREFHRKYRIPADVDPLTITSSLSSDGVLTVNGPRKQVSGPERTIPICREEKPAVTAAPKK | 35 | – | –
